Data from US20060084596A1 (UNIVERSITY OF SOUTH FLORIDA, published 2006).
Values joined by “and” are separate entries in the source; they are usually repeats but may differ in a detail not shown here. Identical values can stand only once. Positions of bridges follow the written chain, without caps; N, C: chain ends. Non-standard residues stand in square brackets, D forms with d. No end group written: not given here. d2Nal = N[C@H](Cc1ccc2ccccc2c1)C(=O)O; dAbu = CC[C@@H](N)C(=O)O

Experiments:
Assay in all cases: cell-based or functional assay
[1] = molecular target: platelet derived growth factor PDGF-BB (UniProt P01127 82-190)
[2] = molecular target: vascular endothelial growth factor (VEGF) (UniProt P15692-4 27-191, limits assumed)
[3] = molecular target: acidic fibroblast growth factor (aFGF) (UniProt P05230 16-155, limits assumed)
[4] = molecular target: insulin-like growth factor-1 (IGF-1) (UniProt P05019 49-118)
Sequence of insulin-like growth factor-1 (IGF-1) (P05019 49-118 limits assumed): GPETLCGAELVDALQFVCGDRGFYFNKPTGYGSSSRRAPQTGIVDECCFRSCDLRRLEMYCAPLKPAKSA

Sequence of vascular endothelial growth factor (VEGF) (P15692 other isoform, or with tags, fused parts or gaps limits assumed): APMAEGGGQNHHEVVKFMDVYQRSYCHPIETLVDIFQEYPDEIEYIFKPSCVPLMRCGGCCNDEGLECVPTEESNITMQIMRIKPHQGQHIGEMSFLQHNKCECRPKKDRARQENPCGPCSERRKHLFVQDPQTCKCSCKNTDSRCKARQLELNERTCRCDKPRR
Sequence of acidic fibroblast growth factor (aFGF) (P05230 16-155 limits assumed): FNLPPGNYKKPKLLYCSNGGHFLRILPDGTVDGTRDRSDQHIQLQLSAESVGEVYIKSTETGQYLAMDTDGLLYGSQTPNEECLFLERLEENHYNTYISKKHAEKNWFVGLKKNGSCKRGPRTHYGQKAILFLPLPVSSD
Sequence of platelet derived growth factor PDGF-BB (P01127 82-190 limits assumed): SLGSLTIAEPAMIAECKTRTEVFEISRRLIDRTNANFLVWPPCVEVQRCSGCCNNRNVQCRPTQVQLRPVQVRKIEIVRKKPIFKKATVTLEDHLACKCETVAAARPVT

| Binder | IC50, PDGFR-Y-P [1] | IC50, p42/Erk2 [1] | IC50, Flk-1-Y-P [2] | IC50, p42 [2] | IC50, p44 [2] | (IC50) Inhibition, p42 [3] | (IC50) Inhibition, p44 [3] | % Inhibition at 100 µM, p42 [4] | % Inhibition at 100 µM, p44 [4] | % Inhibition at 100 µM, IGF1R-Y-P [4] | (IC50) Inhibition, p42 (mean) [3] | (IC50) Inhibition, p44 (mean) [3] | IC50, p42/Erk2: p42 [1] | IC50, p42/Erk2: p44 [1] |
| --- | --- | --- | --- | --- | --- | --- | --- | --- | --- | --- | --- | --- | --- | --- |
| GFGD (designed binder, linker N-C via 3‑aminomethyl‑5‑aminobenzamide; also: four loops on O4-Calix calix[4]arene scaffold) [GFB-101] | > 500 µM | > 500 µM | > 100 µM | > 100 µM | > 100 µM |  |  |  |  |  |  |  |  |  |
| [dA]DGD (designed binder, linker N-C via 3‑aminomethyl‑5‑aminobenzamide; also: four loops on But-Calix calix[4]arene scaffold) [GFB-108] | 9 µM | 57 µM | 10 µM | 50 µM | 50 µM | 67.8 µM per head; likely % | 80.1 µM per head; likely % | 67.8% | 80.1% |  |  |  |  |  |
| ADGD (designed binder, linker N-C via 3‑aminomethyl‑5‑aminobenzamide; also: four loops on But-Calix calix[4]arene scaffold) [GFB-112] | 29 µM | 26 µM | < 10 µM | 10 µM | 10 µM | 59.7 µM per head; likely % and 40.2 µM per head; likely % | 62.9 µM per head; likely % and 39.6 µM per head; likely % | -7.6% | 30.4% | 0.6% |  |  |  |  |
| GDDD (designed binder, linker N-C via 3‑aminomethyl‑5‑aminobenzamide; also: four loops on But-Calix calix[4]arene scaffold) [GFB-106] | 8 µM | 33 µM | < 10 µM | < 10 µM | < 10 µM |  |  |  |  |  |  |  |  |  |
| GDFD (designed binder, linker N-C via 3‑aminomethyl‑5‑aminobenzamide; also: four loops on But-Calix calix[4]arene scaffold) [GFB-105] |  |  |  | > 100 µM | > 100 µM | 66.4 µM per head; likely % | 75.7 µM per head; likely % |  |  | 1.3% |  |  |  |  |
| GDLD (designed binder, linker N-C via 3‑aminomethyl‑5‑aminobenzamide; also: four loops on But-Calix calix[4]arene scaffold) [GFB-109] | 7.5 µM | 15 µM |  |  |  | 68.3 µM per head; likely % | 79.7 µM per head; likely % | 68.3% | 79.7% |  |  |  |  |  |
| GDAD (designed binder, linker N-C via 3‑aminomethyl‑5‑aminobenzamide; also: four loops on But-Calix calix[4]arene scaffold) [GFB-110] | 1.7 µM | 7 µM |  |  |  | 76.1 µM per head; likely % and 93 µM per head; likely % | 85.2 µM per head; likely % and 98.9 µM per head; likely % |  |  |  |  |  |  |  |
| GDND (designed binder, linker N-C via 3‑aminomethyl‑5‑aminobenzamide; also: four loops on But-Calix scaffold) [GFB-117] | 5.8 µM | 36 µM |  |  |  | 63.4 µM per head; likely % and 67.6 µM per head; likely % | 80.8 µM per head; likely % and 84.3 µM per head; likely % | 17.1% | 61.5% | 4.9% |  |  |  |  |
| [d2Nal]DGD (designed binder, linker N-C via 3‑aminomethyl‑5‑aminobenzamide; also: four loops joined to But-Calix calix[4]arene scaffold) [GFB-118] | 0.7 µM | 1.2 µM |  |  |  | 20.6 µM per head; likely % | 30.5 µM per head; likely % | 16.4% | 55.2% | 1.5% |  |  |  |  |
| PDGD (designed binder, linker N-C via 3‑aminomethyl‑5‑aminobenzamide; also: four loops on But-Calix scaffold) [GFB-119] | 20 µM | 32 µM |  |  |  | 62.6 µM per head; likely % and 72.1 µM per head; likely % and 47.8 µM per head; likely % | 78.9 µM per head; likely % and 81.7 µM per head; likely % and 58.1 µM per head; likely % | 29.7% | 66.2% | 16.7% | 60.8 µM per head; likely % | 72.9 µM per head; likely % |  |  |
| [dAbu]DGD (designed binder, linker N-C via 3‑aminomethyl‑5‑aminobenzamide; also: four loops joined to But-Calix calix[4]arene scaffold) [GFB-121] | 5.6 µM | 8.5 µM |  |  |  | 8.7 µM per head; likely % | 8.9 µM per head; likely % | 28.3% | 62.1% | 33.8% |  |  |  |  |
| GDDY (designed binder, linker N-C via 3‑aminomethyl‑5‑aminobenzamide; also: four loops on But-Calix calix[4]arene scaffold) [GFB-122] | 1.7 µM | 19 µM |  |  |  | 57.3 µM per head; likely % | 71.6 µM per head; likely % |  |  |  |  |  |  |  |
| GDGY (designed binder, linker N-C via 3‑aminomethyl‑5‑aminobenzamide; also: loops on DPM-2 scaffold) [GFB-128] |  | > 50 µM |  |  |  |  | 43.3 µM per head; likely % | -6.1% | 38.2% | -12% |  |  |  |  |
| GDDY (designed binder, linker N-C via 3‑aminomethyl‑5‑aminobenzamide; also: loops on DPM-2 scaffold) [GFB-130] |  |  |  |  |  | 78.9 µM per head; likely % | 78.9 µM per head; likely % |  |  |  |  |  |  |  |
| GFB-132 (designed binder, also: 3 GDGY loops and 1 GDDG loop on But-Calix scaffold, linker to a chain's N/C-terminus via 3-aminomethyl-5-aminobenzamide) peptide 1: GDGY peptide 2: GDDG | 0.4 µM |  |  |  |  |  | 50.2 µM per head; likely % |  |  |  |  |  | 2.9 µM |  |
| GDGY (designed binder, linker N-C via 3‑aminomethyl‑5‑aminobenzamide; also: 3 GDGY loops on But-Calix scaffold, CO2H at fourth position) [GFB-133] |  |  |  |  |  |  | 101 µM per head; likely % |  |  |  |  |  | 3.2 µM | 3 µM |
| GFB-134 (designed binder, also: 3 GDGY loops and 1 GDDY loop on But-Calix scaffold, linker to a chain's N/C-terminus via 3-aminomethyl-5-aminobenzamide) peptide 1: GDGY peptide 2: GDDY | 1.9 µM |  |  |  |  | 54.8 µM per head; likely % | 64.1 µM per head; likely % | 4.9% | 53.5% | 16.8% |  |  | 2.5 µM | 2.6 µM |
| GFB-135 (designed binder, also: 3 GDGY loops and 1 GDDD loop on But-Calix scaffold, linker to a chain's N/C-terminus via 3-aminomethyl-5-aminobenzamide) peptide 1: GDGY peptide 2: GDDD | 1.9 µM |  |  |  |  | 44.1 µM per head; likely % | 53.9 µM per head; likely % | 0.8% | 46.1% | 16.2% |  |  | 3.2 µM | 24 µM |
| GFB-136 (designed binder, also: 3 GDDD loops and 1 GDGY loop on But-Calix scaffold, linker to a chain's N/C-terminus via 3-aminomethyl-5-aminobenzamide) peptide 1: GDDD peptide 2: GDGY | 3 µM |  |  |  |  | 73.1 µM per head; likely % | 84.5 µM per head; likely % | 15% | 59.5% | 40.6% |  |  | 25 µM | 24 µM |
| GFB-137 (designed binder, not fully specified; also: linker to a chain's N/C-terminus via 3-aminomethyl-5-aminobenzamide) peptide 1: GDGY peptide 2: GDDG | 0.4 µM |  |  |  |  |  | 19.9 µM per head; likely % |  |  |  |  |  | 2.9 µM |  |
| GDGD (designed binder, linker N-C via 3‑aminomethyl‑5‑aminobenzamide; also: four loops on O3-Calix calix[4]arene scaffold) [GFB-104] |  |  |  |  |  |  |  |  |  | -28.4% |  |  |  |  |
| GDDD (designed binder, linker N-C via 3‑aminomethyl‑5‑aminobenzamide; also: loops on DPM-2 scaffold) [GFB-129] |  |  |  |  |  |  |  | 2.8% | 33.4% | 3.4% |  |  |  |  |
| GDFD (designed binder, linker N-C via 3‑aminomethyl‑5‑aminobenzamide; also: four loops on O4-Calix calix[4]arene scaffold) [GFB-102] |  |  |  | > 100 µM | > 100 µM |  |  |  |  |  |  |  |  |  |
| GDGD (designed binder, linker N-C via 3‑aminomethyl‑5‑aminobenzamide; also: four loops on But-Calix calix[4]arene scaffold) [GFB-107] |  |  | < 10 µM | 100 µM | 100 µM |  |  |  |  |  |  |  |  |  |
